pKd: −log10 of the molar value. Values belong to the substance of their own block, whether it stands above or below them.
What was measured:
[1] = biological target: kindlin-2 (endogenous, fibroblasts) [mouse (endogenous in talin^1/2dko fibroblasts)]; experiment: anti-GFP immunoprecipitation, western blot quantification; settings: talin1/2dKO fibroblasts, N = 3; parent: 1; read off a plot
[2] = biological target: GST-integrin beta3 cytoplasmic tail (UniProt P05106); experiment: SPR; GST-integrin beta3CT amine-coupled to CM5, talinH or tlnM3 (0–125 nM) flowed over; 50 mM sodium phosphate pH 6.8, 150 mM NaCl, 0.05% Tween 20, 0.03% BSA, 25 °C
paxillin 1–160 (human) = paxillin 1–160 (human) (UniProt P49023); experiment: SPR; paxillin 1–160 amine-coupled to CM5, talin subdomains (0–12 μM) flowed over; 50 mM sodium phosphate pH 6.8, 150 mM NaCl, 25 °C; talin-R1–R4 fitted by a two-state model
[3] = biological target: constitutively activated full-length talin mutant tlnM3 (M319A, T1767L, E1770K) (mouse) (UniProt P26039); experiment: SPR; tlnM3 amine-coupled to CM5, tlnM3 flowed over; 150 mM salt, pH 6.8, 25 °C; intermolecular tlnM3/tlnM3 interaction (dimerization)

paxillin 1–160 (human), sequence (P49023 1-160): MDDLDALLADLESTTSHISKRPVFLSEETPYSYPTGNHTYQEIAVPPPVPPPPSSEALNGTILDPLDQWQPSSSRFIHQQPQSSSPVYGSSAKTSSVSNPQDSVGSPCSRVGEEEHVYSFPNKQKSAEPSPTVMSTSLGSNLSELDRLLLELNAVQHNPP
GST-integrin beta3 cytoplasmic tail, sequence (P05106 742-788): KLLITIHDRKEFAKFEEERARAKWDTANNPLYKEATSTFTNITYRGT

ratio to parent [1]: 0.49
Substance: C-terminally ypet-tagged full-length talin WT mutant A680E; K687E [mouse] / kindlin-2 (endogenous, fibroblasts) [mouse (endogenous in talin^1/2dko fibroblasts)] chain 1 A680E, chain 1 K687E

pKd [3]: 5.74
Substance: constitutively activated full-length talin mutant tlnM3 (M319A, T1767L, E1770K), P26039 1-2541

pKd [2]: 7.53
Substance: talin N-terminal head domain (talin-H) (domain or fragment)

The remaining lines, values behind:

Substance: talin deletion mutant without C-terminal dimerization domain (from UniProt P26039 1-2482) (domain or fragment)
pKd [2]: 7.44

Substance: talin-R11 (domain or fragment)
pKd (paxillin 1–160 (human)): 4.90

Substance: talin-R1–R4 (domain or fragment)
pKd (paxillin 1–160 (human)): 6.82
stoichiometry N (paxillin 1–160 (human)): 1

Substance: C-terminally ypet-tagged full-length talin WT mutant T2126E; K2133E [mouse] / kindlin-2 (endogenous, fibroblasts) [mouse (endogenous in talin^1/2dko fibroblasts)] chain 1 T2126E, chain 1 K2133E
ratio to parent [1]: 0.81

Substance: C-terminally ypet-tagged full-length talin WT mutant A680E; K687E; T2126E; K2133E [mouse] / kindlin-2 (endogenous, fibroblasts) [mouse (endogenous in talin^1/2dko fibroblasts)] chain 1 A680E, chain 1 K687E, chain 1 T2126E, chain 1 K2133E
ratio to parent [1]: 0.31

— PMC9054839
